Assay: yeast display, Sf9 membrane polyspecificity reagent, FACS + sequencing; frameworks hold sequencing errors
Summary of the method: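 Galactose induction of a Saccharomyces cerevisiae BJ5465 synthetic nanobody display library ran 36–48 hours. The cells were then stained for 1 hour at 4 °C with 10% biotinylated, detergent-solubilized Sf9 membrane reagent, pulled down on streptavidin microbeads and FACS-sorted into low and high (top ~1%) gates on expression and reagent-binding fluorescence. Labels for polyreactivity follow the gate of origin.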

| Sequence | polyreactivity (PSR sort gate) |
| --- | --- |
| QVQLVESGGGLVQAGGSLRLSCAASGRTFGEYAMGWYRQAPGKERELVAAISSAGSTYYADSVKGRFTISRDNAKNTVYLQMNSLKPEDTAVYYCAASRKYGYGYWGQGTQVTVSS | high polyreactivity |
| QVQLVESGGGLVQAGGSLRLSCAASGRTFGFNAMGWYRQAPGKERELVAAISSSSSSTYYADSVKGRFTISRDIAKNTVYLQMNSLKPEDTAVYYCAADIVYVTWFYYWGQGTQVTVSS | low polyreactivity |
| QVQLVESGGGLVQAGGSLRLSCAASGRTFGFYAMGWYRQAPGKERELVAAIRGSIGNTYYADSVKGRFTISRDNAKNTVYLQMNSLKPEDTAVYYCAKAIRYPSAKFYWGQGTQVTVSS | high polyreactivity |
| QVQLVESGGGLVQAGGSLRLSCAASGRTFGFYAMGWYRQAPGKERELVATISSSGGSTYYADSVKGRFTISRDNAKNTVYLQMNSLKPEDTAVYYCAADYLDSTYGYVYGWDDYWGQGTQVTVSS | low polyreactivity |
| QVQLVESGGGLVQAGGSLRLSCAASGRTFGFYVMGWYRQAPGKERELVAAITPGGNTNYADSVKGRFTISRDNAKNSVYLQMNRLKPEDTAVYYCAASPGTIASYEGDFWGQGTQVTVSS | low polyreactivity |
| QVQLVESGGGLVQAGGSLRLSCAASGRTFGGNAMGWYRQAPGKERELVAAISSGGSTNYADSVKGRFTISRDNAKNTVYLQMNSLKPEDTAVYYCAAGWYWWARYDYWGQGTQVTVSS | low polyreactivity |
| QVQLVESGGGLVQAGGSLRLSCAASGRTFGGNAMGWYRQAPGKERELVAAISSGGSTNYADSVKGRFTISRDNANNTVYLQMNSLKPEDTAVYYCAARGPYWGQGTQVTVSS | low polyreactivity |
| QVQLVESGGGLVQAGGSLRLSCAASGRTFGGNAMGWYRQAPGKERELVASISWSGGTTYYADSVKGRFTISRDNAKNTVYFQMNSLKPEDTAVYYCNTVNSQQYSSSHYDSWGQGTQVTVSS | high polyreactivity |
| QVQLVESGGGLVQAGGSLRLSCAASGRTFGGNTMGWYREAPGKERELVAAISRRGGSTYYADSVKGRFTISRDNAKNTVYLQMNSLKPEDTAVYYCNKDGPSYSSYDYWGQGTQVTVSS | low polyreactivity |
| QVQLVESGGGLVQAGGSLRLSCAASGRTFGGNTMGWYRQAPGKERELVAAISFSGGSTYYADSVKGRFTISRDNAKNTVYLQMNSLKPEDTAVYYCAREDYSHSFLTYDYWGQGTQVTVSS | low polyreactivity |
| QVQLVESGGGLVQAGGSLRLSCAASGRTFGGYALGWYRQAPGKERELVATISYSSGSTYYADSVKGRFTISRDNAKNTVYLQMNSLKPEETAVYYCAARIRYFYRYDYWGQGTQVTVTS | high polyreactivity |
| QVQLVESGGGLVQAGGSLRLSCAASGRTFGGYAMGWYRQAPGKERELVAAITSDTGTNYADSVKGRFTISRDNAKNTVYLQMNSLKPEDTAVYYCAADRFYEYDYWGQGTQVTVSS | low polyreactivity |
| QVQLVESGGGLVQAGGSLRLSCAASGRTFGGYTMGWYRQAPGKEREFVAAITWSTGGSTYYADSVKGRFTISRDNAKNTVYLQMNSLKPEDTAVYYCAKDLYLHTYYAYPYRFGSGYYWGLGTQVTVSS | low polyreactivity |
| QVQLVESGGGLVQAGGSLRLSCAASGRTFGGYTMGWYRQAPGKERELVAAISWGGGSTYYADSVKGRFTISRDNAKNTVYLQMNSLKPEDTAVYYCAAVSPNLRLFGYRYRYEYWGQGTQVTVSS | high polyreactivity |
| QVQLVESGGGLVQAGGSLRLSCAASGRTFGHNAMGWYRQAPGKEREFVAAITYSGVRTFYADSVKGRFTISRDNAKNTVYLQMNSLKPEDTAVFYCAAYYPSQDYSGFWSDTYEYWGQGTQVTVSS | low polyreactivity |
| QVQLVESGGGLVQAGGSLRLSCAASGRTFGINAMGWYRPAPGKERELVAAIRTGGSTYYADSVKGRFTISRDNAKNTVYLQMNSLKPEDTAVFYCAAVLYHNRKTEYTYGYWGQGTQVTVSS | high polyreactivity |
| QVQLVESGGGLVQAGGSLRLSCAASGRTFGINAMRWSRQATGKERELVAAITGRSGRTYYADSVKGRFTISRDNAKYTVYLQMNSLQPEDTAVYYCAARWPVYSRRYGYWGQGTQVTVSS | high polyreactivity |
| QVQLVESGGGLVQAGGSLRLSCAASGRTFGIYAMGWYRPAPGKERELVATISWRGGSTYYADSVKGRFTISRDNAKNTVYLQMNSLKPEDTAVYYCAAGYYPYWGQGTQVTVSS | low polyreactivity |
| QVQLVESGGGLVQAGGSLRLSCAASGRTFGIYAMGWYRQAPGKERELVAAITWSGDSTYYADSVKGRFTISRDNAKNTVYLQMNSLKPEDTAVYYCAADYFGVTSVRYDYWGQGTQVTVSS | low polyreactivity |
| QVQLVESGGGLVQAGGSLRLSCAASGRTFGIYAMGWYRQAPGKEREMVAAISRGGNTYADSVKGRFTISRDNAKNTVYLQMNSLKQEDTAVYYCAAYSSYYVHRFQHYDYWGQGTQVTVSS | high polyreactivity |
| QVQLVESGGGLVQAGGSLRLSCAASGRTFGKNAMGWYRQAPGKEREFVAAITSRGGSTYYADSVKGRFTISRDNAKNTVYLQMNSLKAEDTAVYYCNREYIRPSQRTEHYYWGQGTQVTVSS | low polyreactivity |
| QVQLVESGGGLVQAGGSLRLSCAASGRTFGKNAMGWYRQAPGKEREFVAAITSRGGSTYYADSVKGRFTISRDNAKNTVYLQMNSLKPEDTAVYYCAADYYQWSTFLGVYEYDYWGQGTQVTVSS | low polyreactivity |

| Sequence | polyreactivity (PSR sort gate) |
| --- | --- |
| QVQLVESGGGLVQAGGSLRLSCAASGRTFGKYAMGWYRQAPGKESELVAAITNSGGSTYYADSVKGRFTISRDNAKNTVYLQMNSLKPEDTAVYYCNRLGYRGPSKLNHMGYWGQGTQVTVSS | high polyreactivity |
| QVQLVESGGGLVQAGGSLRLSCAASGRTFGLNAMGWYRQAPGKERELVAAISSSGGSTYYADSVKGRFTISRDNAKNTVYLQMNSLKPEDTAVYYCAKVLYRYGTAYYYWGQGTQVTVSS | high polyreactivity |
| QVQLVESGGGLVQAGGSLRLSCAASGRTFGLYAMGWYRQAPGKERELVAAIDQSTGSTYYADSVKGRFTISRDNSKNTVYLQMNSLKQEDTAVYYCAAEEASTVRYYWYDYWGLGTQVTVSS | high polyreactivity |
| QVQLVESGGGLVQAGGSLRLSCAASGRTFGLYAMGWYRQAPGKERELVAAISWGGGRTYYADSVKGRFTISRDNAKNTVYLQMNSLKPEDTAVYYCNAVYSPRYYVGGYDYWGQGTQVTVSS | high polyreactivity |
| QVQLVESGGGLVQAGGSLRLSCAASGRTFGLYAMRWYIQAPGKERELVAAIRGSAGSTYYADSVKGRFTISRDNAKNTVYLQMNSLKPEDTAVYYCATGGYPSLWYGYGYWGQGTQVTVSS | low polyreactivity |
| QVQLVESGGGLVQAGGSLRLSCAASGRTFGLYDMGWYRQAPGKERELVAGITRRGGRTYYADSVKGRFTISRDNAKNTVYLQMNSLKPEDTAVYYGAAGTLYLRHAQSPFDYWGQGTQVTVSS | high polyreactivity |
| QVQLVESGGGLVQAGGSLRLSCAASGRTFGNNAMGWYRQAPGKERELVAAITARGSRTYYADSVKGRFTISRDNAKNTVYLQMNSLKPEDTAVYYCNAGVRRYYRSLHSIGIYYYWGQGTQVTVSS | high polyreactivity |
| QVQLVESGGGLVQAGGSLRLSCAASGRTFGNYAMGWYRQAPGTERELVASITYTVGNTYYADSVKGRFTISRDNAKNTVYIQMNSLKPEDTAVYYCAADGFYLQFYHYDYWGQGTQVTVSS | low polyreactivity |
| QVQLVESGGGLVQAGGSLRLSCAASGRTFGPYAMGWYRQAPGKEREFVAAISYSGGSTYYADSVKGRFTISRDIAKNTVYLQMNSLKPEDTAVYYCAARLPSDHRPVVRGGYEMGYWGQGTQVTVSS | low polyreactivity |
| QVQLVESGGGLVQAGGSLRLSCAASGRTFGPYAMGWYRQAPGKERELVAAISSSGSTTYYADSVKGRFTISRDNAKNTVYLQMNSLKPEDTAVYYCAKPSSRDSPYDYWGQGTQVTVSS | low polyreactivity |
| QVQLVESGGGLVQAGGSLRLSCAASGRTFGPYAMGWYRQAPGKERELVAVISGRGTSTYYADSVKGRFTISRDNAKNTVYLQMNSMKPEDTAVYYCNADYGSWYWGFDYWGQGTQVTVSS | low polyreactivity |
| QVQLVESGGGLVQAGGSLRLSCAASGRTFGPYTMGWYRQAPGKEREFVAAINSSGSRTYYADSVKGRFTISRDNAKNTVYLKINSLKPEDTGVYYCAAEAKWYYSWSYPYEGDYWGQGTQVTVSS | low polyreactivity |
| QVQLVESGGGLVQAGGSLRLSCAASGRTFGQNALGWYRQAPGKERELVASIRSGGITDYADSVKGRFTISRDNAKNTVYLQMNSLKPEDTAVYYCNAEGVWWSTRYDSWGQGTQVTVSS | low polyreactivity |
| QVQLVESGGGLVQAGGSLRLSCAASGRTFGQNAMGWYRQAPGKERELVASIRSGGITDYADSVKGRFTISRDNAKNTVYLQMNSLKPDDTAVYYCNAEGVWWSTRYDSWGQGTQVTVSS | low polyreactivity |
| QVQLVESGGGLVQAGGSLRLSCAASGRTFGQYVMGWYRKAPGKERELVAAIRSGGSTYYADSVKGRFTISRDNAKNTVYLQMNSLKPEDTAVYYCAKETYYVTDNFGQVGGEMDYWGQGTQVTVSS | low polyreactivity |
| QVQLVESGGGLVQAGGSLRLSCAASGRTFGRNAMGWYRQAPGERELVAVISRGGSTYYADSVKGRFTISRDNAKNTVYLQMNSLKPEDTAVYYCNADTVYTRTAPYDYWGQGTQVTVSS | low polyreactivity |
| QVQLVESGGGLVQAGGSLRLSCAASGRTFGRNAMGWYRQAPGKERELVAAITWSGGSTYYADSVKGRFTISRDNAKNTVYLQMNSLKPEDTAVYYCAADRSRWGQGTQVTVSS | high polyreactivity |
| QVQLVESGGGLVQAGGSLRLSCAASGRTFGRNAMGWYRQAPGKERELVADISLRGGRTYYADSVKGRFTISRDNAKNTVYLQMNSLKPEDTAVYYCAAVQPVGLYPRTKYYYWGQGTQVTVSS | high polyreactivity |
| QVQLVESGGGLVQAGGSLRLSCAASGRTFGRNTMGWYRQAPGKERELVAGISRSAGRTYYADSVKGRFTISRDNAKNTVYLQMNSLKPEDTAVYYCAARYQGNYRTDKYDYWGQGTQVTVSS | high polyreactivity |
| QVQLVESGGGLVQAGGSLRLSCAASGRTFGRYAKGWYRQAPGKERELVATITSGGSTNYADSVKGRFTISRDNAKNTVYLQMNSLKPEDTAVYYCAAEFSPSRWAYSEGALRYNYWGQGTQVTVSS | low polyreactivity |
| QVQLVESGGGLVQAGGSLRLSCAASGRTFGRYALGWDRQAPGKDRELVAAISYSTDSTYYADSVKGRFTISRDNAKNTVYLQMNSLKPEDTAVYYCATDSVNVGSYVGDKHDYWGQGTQVTLSS | low polyreactivity |

Reference: the nanobody polyreactivity screen of Harvey et al. (2022)
